The source of these data is patent US7186459B2, “Liposome coated with polyhydroxyalkanoate and production method thereof” (priority 2001, dated 2007).

This series concerns PHA synthesizing enzyme. Description: Activity of purified PHA synthesizing enzyme (released CoA coloured with 5,5'-dithiobis-(2-nitrobenzoic acid), absorbance at 412 nm). Conditions: for Activity: 1 U = amount of enzyme releasing 1 μmol CoA per minute, substrate 3-hydroxyoctanoyl CoA, 30° C.; for Specific Activity: protein by Micro BCA. The format is biochemical, Pseudomonas cichorii YN2. The source says: A various kinds of reported methods may be used for measuring activity of the PHA synthesizing enzyme, and for example, the activity may be measured by the following method in which as a measurement principle, CoA released in the process through which 3-hydroxyacyl CoA is polymerized under the catalytic action of the PHA synthesizing enzyme to form PHA is colored with 5,5′-dithiobis-(2-nitrobenzoic acid) to carry out measurements. Reagent 1: bovine serum albumin (manufactured by Sigma Co., Ltd.) is dissolved in a 0.1 M Tris hydrochloric buffer (pH 8.0) in the concentration of 3.0 mg/ml, Reagent 2: 3-hydroxyoctanoyl CoA is dissolved in a 0.1 M Tris hydrochloric buffer (pH 8.0) in the concentration of 3.0 mM, Reagent 3: trichloroacetic acid is dissolved in a 0.1 M Tris hydrochloric buffer (pH 8.0) in the concentration of 10 mg/ml, and Reagent 4: 5,5′-dithiobis-(2-nitrobenzoic acid) is dissolved in a 0.1 M Tris hydrochloric buffer (pH 8.0) in the concentration of 2.0 mM. First reaction (PHA synthesis reaction): 100 μl of Reagent 1 is added in 100 μl of sample (enzyme) solution and mixed together, and is pre-incubated at 30° C. for a minute. 100 μl of Reagent 2 is added thereto and mixed together, and is incubated at 30° C. for 1 to 30 minutes, followed by adding thereto Reagent 3 to stop the reaction. Second reaction (reaction of coloring free CoA): the first reaction solution of which reaction has been stopped is subjected to centrifugation (15,000×g, 10 minutes), and 500 μl of Reagent 4 is added in 500 μl of supernatant liquid of this solution, and is incubated at 30° C. for 10 minutes, followed by measuring an absorbance at 412 nm. Calculation of enzyme activity: the amount of enzyme for releasing 1 μmol of CoA per minute is defined as one unit (U).
The activity of each purified enzyme was measured by the aforesaid method. Also, the concentrations of proteins in the sample were measured by the Micro BCA protein quantification reagent kit (Pierce Chemical Co., Ltd.).

B1: YN2-C2: Purified PHA synthase derived from Pseudomonas cichorii YN2, from plasmid pYN2-C2 (SEQ ID NO: 4), 61.5 kDa (protein)
chain: MRDKPARESLPTPAKFINAQSAITGLRGRDLVSTLRSVAAHGLRHPVHTARHALKLGGQLGRVLLGDTLHPTNPQDRRFDDPAWSLNPFYRRSLQAYLSWQKQVKSWIDESNMSPDDRARAHFAFALLNDAVSPSNSLLNPLAIKEIFNSGGNSLVRGIGHLVDDLLHNDGLPRQVTRHAFEVGKTVATTTGAVVFRNELLELIQYKPMSEKQYSKPLLVVPPQINKYYIFDLSPHNSFVQFALKNGLQTFVISWRNPDVRHREWGLSTYVEAVEEAMNVCRAITGAREVNLMGACAGGLTIAALQGHLQAKRQLRRVSSATYLVSLLDSQLDSPATLFADEQTLEAAKRRSYQKGVLEGRDMAKVFAWMRPNDLIWSYFVNNYLMGKEPPAFDILYWNNDNTRLPAALHGDLLDFFKHNPLSHPGGLEVCGTPIDLQKVTVDSFSVAGINDHITPWDAVYRSTLLLGGERRFVLANSGHVQSILNPPNNPKANYLEGAKLSSDPRAWYYDAKPVDGSWWTQWLGWIQERSGAQKETHMALGNQNYPPMEAAPGTYVRVR
modifications: Pseudomonas cichorii YN2 ; FERM BP-7375
Regarding B1, the Activity is 1.5 U/mL and the “Specific Activity” value is 3.6 U/mg Protein.

B2: YN2-C1: Purified PHA synthase derived from Pseudomonas cichorii YN2, from plasmid pYN2-C1 (SEQ ID NO: 2), 60.8 kDa (protein)
chain: MSNKSNDELKYQASENTLGLNPVVGLRGKDLLASARMVLRQAIKQPVHSVKHVAHFGLELKNVLLGKSGLQPTSDDRRFADPAWSQNPLYKRYLQTYLAWRKELHDWIDESNLAPKDVARGHFVINLMTEAMAPTNTAANPAAVKRFFETGGKSLLDGLSHLAKDLVHNGGMPSQVNMGAFEVGKSLGVTEGAVVFRNDVLELIQYKPTTEQVYERPLLVVPPQINKFYVFDLSPDKSLARFCLRNNVQTFIVSWRNPTKEQREWGLSTYIEALKEAVDVVTAITGSKDVNMLGACSGGITCTALLGHYAAIGENKVNALTLLVSVLDTTLDSDVALFVNEQTLEAAKRHSYQAGVLEGRDMAKVFAWMRPNDLIWNYWVNNYLLGNEPPVFDILFWNNDTTRLPAAFHGDLIELFKNNPLIRPNALEVCGTPIDLKQVTADIFSLAGTNDHITPWKSCYKSAQLFGGNVEFVLSSSGHIQSILNPPGNPKSRYMTSTEVAENADEWQANATKHTDSWWLHWQAWQAQRSGELKKSPTKLGSKAYPAGEAAPGTYVHER
modifications: Pseudomonas cichorii YN2 ; FERM BP-7375
Take B2: the Activity amounted to 2.1 U/mL and the “Specific Activity” value is 4.1 U/mg Protein.
